# Laboratory results reported in US20090062512A1, “Comparative ligand mapping from MHC class I positive cells” (priority 2000, published 2009).
# Several values for one entry are separate records, joined by “and”; a condition that tells them apart may be missing. Equal values may be shown once. Read-outs that look alike come from different tables or passages of the source.
# How the values were obtained:
# Type in all cases: cell-based
# [1] = target: A*0201 class I MHC molecules in cells infected with the PR8 strain of influenza A virus (Homo sapiens, UniProt P04439, D140Y/D185E/D98H/E176V/E277Q/G131W/G231S/I119V/I121R/I166T/I218V/L300P/L318F/N151K/N90K/P208A/P217A/Q86G/Q94H/R138H/R169H/T345S)
# [2] = target: B*0702 class I MHC molecules in cells infected with the PR8 strain of influenza A virus (Homo sapiens, UniProt P01889)
# [3] = target: sHLA-A*0201 from MCF-7, MDA-MB-231, BT-20 and MCF10A (Homo sapiens, UniProt P04439, D140Y/D185E/D98H/E176V/E277Q/G131W/G231S/I119V/I121R/I166T/I218V/L300P/L318F/N151K/N90K/P208A/P217A/Q86G/Q94H/R138H/R169H/T345S); assay: MS comparative analysis of sHLA-A*0201 peptides, breast cancer cell lines vs nontumorigenic MCF10A; settings: for FOLD INCREASE BT-20 over MCF10A / FOLD INCREASE MCF-7 over MCF10A / FOLD INCREASE MDA-MB-231 over MCF10A: peptide epitope presented on sHLA-A*0201; for FOLD INCREASE BT-20 over MCF10A: BT-20 vs nontumorigenic MCF10A; for FOLD INCREASE MCF-7 over MCF10A: MCF-7 vs nontumorigenic MCF10A; for FOLD INCREASE MDA-MB-231 over MCF10A: MDA-MB-231 vs nontumorigenic MCF10A
# [4] = PR8B0702: presentation by sHLA B*0702, influenza PR8 infected vs uninfected cells
Substance,Fold Increase [1],also measured
YLDKVRALE,Unique,–
LLDVVHPAA,3.43,–
SLLDIIEKV,2.56,–
SPRSGLIRV,–,Fold Increase [2]: 1.53
GPYPYTL,–,Fold Increase [2]: 2.01
KLDEGNSL,4.32,–
FLPSYIIDV,2.57,–
ILDKKVEKV,Unique,–
GLGPTFKL,unique,–
TLAEVERLKGL,Unique,–
SLDQPTQTV,9.84,–
ILCPMIFNL,2.51,–
IIMLEALERV,13.68,–
SPQEDKEVI,–,Fold Increase [2]: 4.19
GPREAFRQL,–,Fold Increase [2]: 6.03
RLIDLGVGL,2.03,–
IMLEALERV,1.64,–
ALNDHFVKL,23.02,–
ITAPPSRVL,–,Fold Increase [2]: 1.98
GLDIDGIYRV,1.95,–
RPQGGQDIL,–,Fold Increase [2]: 2.24
ALNEKLVNL,1.52,–
SMMDVDHQI,3.58,–
TLLEDGTFKV,1.67,–

Substance,Fold Increase [1],also measured
VVQDGIVKA,Unique,–
TPEQIFQN,–,Fold Increase [2]: 1.51
SIIGRLLEV,56.92,–
GLMTTVHAITATQ,Unique,–
NPASKVIAL,–,Fold Increase [2]: 1.64
LPRGSSPSVL,–,Fold Increase [2]: 1.57
GPLDIEWLI (listed as Homo sapiens),–,"Fold Increase [2, 4]: 2.2"
GVLDNIQAV,Unique,–
AIIGGTFTV,4.17,–
SLFPGKLEV,–,FOLD INCREASE BT-20 over MCF10A [3]: 2; FOLD INCREASE MCF-7 over MCF10A [3]: 5; FOLD INCREASE MDA-MB-231 over MCF10A [3]: 2.2
IPSIQSRGL,–,Fold Increase [2]: 1.6
KLLEGEESRISL,2.1,–
YQFTGIKKY,–,Fold Increase [2]: 2.3
APEEHPVLL (listed as Homo sapiens),–,"Fold Increase [2, 4]: 1.92"
FLAEEGFYKF,2.98,–
AIVDKVPSV,1.88,–
SPVPSRPL,–,Fold Increase [2]: 2.91
RLYPWGVVEV,2.79,–
TLAKYLMEL,6.81,–
APKRPPSAF,–,Fold Increase [2]: 1.82
NDHFVKL,7.75,–
YAYDGKDYI,Unique,–
GLMTTVHAITA,3.2,–
RVEPLRNEL,–,Fold Increase [2]: 1.95

Substance,Fold Increase [1],also measured
FLASESLIKQIPR,Unique,–
EPRPPHGEL,–,Fold Increase [2]: 2.7
GLIENDALL,1.71,–
YPFKPPKVAF,–,Fold Increase [2]: 3.27
KMLEKLPEL,2.14,–
GLAKLIADV,2.91,–
NLGSPRPL,–,Fold Increase [2]: 5.6
LLDVTPLSL,9.68,–
KVFDPVPVGV,1.74,–
ALASHLIEA,1.67,–
SMPDFDLHL,1.83,–
SLAKIYTEA,5.38,–
GLMTTVHAIT,2.5,–
APGAPPRTL,–,Fold Increase [2]: 1.5
LLDANLNIKI,2.78,–
TIAQLHAV,Unique,–
SMLEDVQRA,2.4,–
VLFDVTGQVRL,2.48,–
YPKRPLLGL,–,Fold Increase [2]: 1.61
KLMELHGEGSS,Unique,–
SPAKIHVF,–,Fold Increase [2]: 2.8
KLEEIIHQI,2.08,–
KIFEMGPVFTL,6.45,–
RPTGGVGAV,–,Fold Increase [2]: 2.7

Substance,Fold Increase [1],also measured
AVGKVIPEL,12.46,–
KPQDYKKR,–,Fold Increase [2]: 2.9
KILDLETQL,–,FOLD INCREASE BT-20 over MCF10A [3]: 7; FOLD INCREASE MCF-7 over MCF10A [3]: 9; FOLD INCREASE MDA-MB-231 over MCF10A [3]: 1.4
PKFEVIEKPQA,–,Fold Increase [2]: 3.6
KMWDPHNDPNA,Unique,–
FLFNTENKL,1.85,–
GLDKQIQEL,4.09,–
HLNEKRRF,–,Fold Increase [2]: 2.02
KIADFGWSV,2.26,–
GVYGDVHRV,2.9,–
ILMEHIHKL,5.46,–
APNRPPAAL,–,Fold Increase [2]: 1.5
LLDVVHPA,33.09,–
APPPPPKAL,–,Fold Increase [2]: 2.29
ALLDKLYAL,3.1,–
TLWPEVQKL,2.97,–
LPSSGRSSL,–,Fold Increase [2]: 2
GIWGFIKGV,6.1,–
RPGLKNNL,–,Fold Increase [2]: 1.5
RLTPKLMEV,2.2,–
RPKANSA,–,Fold Increase [2]: 1.8
AQYEHDLEVA,–,FOLD INCREASE BT-20 over MCF10A [3]: 8; FOLD INCREASE MCF-7 over MCF10A [3]: 34; FOLD INCREASE MDA-MB-231 over MCF10A [3]: 2
TLIGLSIKV,2.28,–
SLWSIISKV,3.06,–

Substance,Fold Increase [1],also measured
VMDSKIVQV,22.84,–
KLFDDDETGKISF,Unique,–
GLAEDSPKM,2,–
GPPGTGKTAL,–,Fold Increase [2]: 1.5
GLLDPSVFHV,2.17,–
APKIGPLGL,–,Fold Increase [2]: 1.54
GLMTTVHAITAT,Unique,–
GLIDGRLTI,1.67,–
SPGIPNPGAPL,–,Fold Increase [2]: 1.84
ALDKATVLL,2.13,–
DPMKARVVL,–,Fold Increase [2]: 1.87
AARPATSTL,–,Fold Increase [2]: 5.1
ARPATSL,–,Fold Increase [2]: 2.2
VLEDPVHAV,3.91,–
SPKIRRL,–,Fold Increase [2]: 1.63
GMASVISRL,Unique,–
ALVSSLHLL,1.51,–
ALVEIGPRFVL,10.83,–
SLFEGTWYL,2.36,–
GIDSSSPEV,Unique,–
YMEEIYHRI,3.98,–
GVAESIHLWEV,2.89,–
TLWGIQKEL,3.27,–
LVFQPVAEL,–,Fold Increase [2]: 4.33

Substance,Fold Increase [1],also measured
TLWDIQKDLK,1.64,–
SPPSKPTVL,–,Fold Increase [2]: 1.9
GIVEGLMTTV,3.1,–
LMTTVHAITAT,Unique,–
NLPLSNLAI,–,Fold Increase [2]: 4.3
KMYEEFLSKV,1.8,–
RVPPPPPIA,6.54,–
TQFVRFDSD,–,Fold Increase [2]: 1.64
ALWEAKEGGLL,1.54,–
VFLKPWI,–,Fold Increase [2]: 1.62
FLLEKGYEV,1.81,–
TLAEIAKVEL,3.32,–
AMIELVERL,1.81,–
KLDPTKTTL,2.93,–
SLYEMVSRV,1.87,–
ALDEKLLNI,1.61,–
TLYEAVREV,–,FOLD INCREASE BT-20 over MCF10A [3]: 7.9; FOLD INCREASE MCF-7 over MCF10A [3]: None; FOLD INCREASE MDA-MB-231 over MCF10A [3]: 2.3
RIVPRFSEL,–,Fold Increase [2]: 1.54
SPGPPTRKL,–,Fold Increase [2]: 1.9
ILGYTEHQV,23.91,–
ILYDIPDIRL,5.99,–
VINDVRDIFL,1.71,–
LLDVPTAAV,5.18,–
AVSDGVIKV,8.98,–

Substance,Fold Increase [1],also measured
FLGRINEI,1.99,–
YAYDGKDYIA,1.6,–
KIAPNTPQL,2.63,–
KVPEWVDTV,5.94,–
FMFDEKLVTV,1.99,–
GMYVFLHAV,2.73,–
FAITAIKGV,3.49,–
GLWDKFSEL,2.59,–
APRPPPKM,–,Fold Increase [2]: 2.9
APAGRKVGL,–,Fold Increase [2]: 1.5
LLLDVPTAAV,1.95,–
RPAGKGSITI,–,Fold Increase [2]: 1.8
TLDEYTTRV,3.74,–
LLPGENINLL,–,Fold Increase [2]: 7.13
APRPVAVAV,–,Fold Increase [2]: 1.5
KAPPAPLAA,Unique,–
ALLAGSEYLKL,1.51,–
KIIDEDGLLNL,1.56,–
KLLDFGSLSNL,3.57,–
ALSDGVHKI,1.88 and 2.36,–
KLIGDPNLEFV,2.82,–
YLDIKGLLDV,2.44,–
LLQEVEHQL (listed as Homo sapiens),–,"presentation by HLA A*0201 of tumorigenic vs nontumorigenic cell lines ([3]; MCF-7, MDA-MB-231, BT-20 vs MCF10A): found only in the MCF-7 peptide pool"
KLFPDTPLAL,Unique,–

Substance,Fold Increase [1],also measured
ALMDEVVKA,2.59,–
ALLSAVTRL,Unique,–
APRGTGIVSA,–,Fold Increase [2]: 2.2
TLIDLPGITKV,6.48,–
KLQEFLQTL,2.3,–
GMYIFLHTV,2.32,–
ILSGVVTKM,1.74,–
RPPPIGAEV,–,Fold Increase [2]: 2.9
VLLSDSNLHDA,10.95,–
GLQDFDLLRV,2.29,–
RPSGKGIVEF,–,Fold Increase [2]: 13.7
RLWPKIQGL,Unique,–
GVIAEILRGV,1.56,–
GLATDVQTV,3.5,–
RLDDVSNDV,2.55,–
GPRSSLRVL,–,Fold Increase [2]: 3.16
TLQEVFERATF,Unique,–
LPKPPGRGV,–,Fold Increase [2]: 1.9
ALQELLSKGL,2.8,–
LLLDVPTAAVQA,6.24,–
FIQTQQLHAA,Unique,–
SMTLAIHEI,2.11,–
QLLGSAHEV,4.98,–
